Reference: patent US20260085114A1 (KYINNO BIOTECHNOLOGY, published 2026)
Changes are numbered by the printed parent chain. One block for each binder: values may come before it.

Experiments:
[1] = biological target: T1, human GPRC5A, on 293T cells (human, UniProt Q8NFJ5 1-357); assay: FACS on 293T-GPRC5A cells, antibody at 2 µg/mL; control tubes 8.30 and 8.41
T1 construct: whole, on cells; also called 293T-GPRC5A
Method: (§1) 100 μl of FACS buffer was then added to each FACS tube for resuspension. 5 μl of PE-labeled, anti-murine Fc tagged secondary antibody (Biolegend, catalog number 409304) was added according to instructions, and incubated at 4° C. in the dark for 30 mins. Then 1 ml of FACS buffer was added, and centrifuged at 1200 rpm at room temperature for 5 mins. The supernatant was discarded followed by washing three times.
(§2) The experimental process was as described in Example 4, cells expressing other members of G protein-coupled receptor class C group 5 as follows were used: 293T cells expressing human GPRC5A, 293T-GPRC5A (Kyinno, catalog number KC-1888), 293T cells expressing human GPRC5B, 293T-GPRC5B (Kyinno, catalog number KC-1854), and 293T cells expressing human GPRC5C, 293T-GPRC5C (Kyinno, catalog number KC-1889). […] Control tube 1 (no antibody and secondary antibody, adding only cell suspension) and Control tube 2 (no antibody, adding only cell suspension and secondary antibody) were included.

[2] = biological target: T2, human GPRC5D (G protein-coupled receptor class C group 5 member D), on cells (human, UniProt Q9NZD1 1-345); assay: FACS on MM.1R multiple myeloma cells
T2 construct: whole, on cells; also called hGPRC5D
T2 sequence (Q9NZD1 whole entry): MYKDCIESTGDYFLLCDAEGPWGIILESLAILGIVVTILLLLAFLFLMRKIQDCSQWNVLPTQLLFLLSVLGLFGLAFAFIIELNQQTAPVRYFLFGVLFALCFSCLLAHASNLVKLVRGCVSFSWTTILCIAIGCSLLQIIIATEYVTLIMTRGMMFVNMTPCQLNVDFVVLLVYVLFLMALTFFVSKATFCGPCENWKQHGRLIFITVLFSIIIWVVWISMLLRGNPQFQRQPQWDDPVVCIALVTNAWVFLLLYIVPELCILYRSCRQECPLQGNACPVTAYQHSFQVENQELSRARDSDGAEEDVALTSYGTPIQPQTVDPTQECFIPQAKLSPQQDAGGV
Method: as §1
(§3) The experimental process was as described in Example 4, and the cells used were replaced with multiple myeloma cells MM.1R (Kyinno, catalog number KC-0619) and MOLP8 (Kyinno, catalog number KC-0622). […] Control tube 1 (no antibody and secondary antibody, adding only cell suspension) and Control tube 2 (no antibody, adding only cell suspension and secondary antibody) were included.

[3] = biological target: T2, human GPRC5D (G protein-coupled …); assay: FACS on MOLP8 multiple myeloma cells
Method: as §1, §3

[4] = biological target: T3, monkey (cyno) GPRC5D, on 293T cells (monkey (cyno)); assay: FACS on 293T cells expressing monkey (cyno) GPRC5D
T3 construct: whole, on cells; also called monkey GPRC5D
Method: as §1
The experimental process was as described in Example 4. […] Control tube 1 (no antibody and secondary antibody, adding only cell suspension) and Control tube 2 (no antibody, adding only cell suspension and secondary antibody) were included.

[5] = biological target: T4, human GPRC5D protein (KACTUS, catalog number GPR-HM05P) (human, UniProt Q9NZD1 1-345, limits assumed); assay: Fortebio BLI, antibody captured on AHC chip, human GPRC5D protein as analyte
T4 construct: Bought reagent used as analyte in the Fortebio assay; the construct is not described
T4 sequence (Q9NZD1 whole entry): as above
Method: Antibodies to be tested were prepared into solutions at concentration of 10 μg/mL using PBS buffer, and the antibodies were captured using the AHC chip according to Fortebio's instructions. The pre-prepared human GPRC5D proteins (KACTUS, catalog number GPR-HM05P) (protein starting at a highest concentration of 200 nM, 2-fold diluted, 6 gradients) were flowed through the chip, with the following specific conditions: flow rate 30 μl/min; antigen-antibody binding time 200 seconds, dissociation time 500 seconds. The measured results were fitted using the supporting software designed for the device to analyze the affinity between an antibody and an antigen.

[6] = biological target: T2, human GPRC5D (G protein-coupled …); assay: FACS on 293T cells expressing human GPRC5D
Method: as §1
Control tube 1 (no antibody and secondary antibody, adding only the cell suspension) and Control tube 2 (no antibody, adding only the cell suspension and the secondary antibody) were included.

[7] = biological target: T5, human GPRC5C, on 293T cells (human, UniProt Q9NQ84 24-441); assay: FACS on 293T-GPRC5C cells, antibody at 2 µg/mL; control tubes 8.86 and 8.73
T5 construct: whole, on cells; also called 293T-GPRC5C
T5 sequence (Q9NQ84 24-441): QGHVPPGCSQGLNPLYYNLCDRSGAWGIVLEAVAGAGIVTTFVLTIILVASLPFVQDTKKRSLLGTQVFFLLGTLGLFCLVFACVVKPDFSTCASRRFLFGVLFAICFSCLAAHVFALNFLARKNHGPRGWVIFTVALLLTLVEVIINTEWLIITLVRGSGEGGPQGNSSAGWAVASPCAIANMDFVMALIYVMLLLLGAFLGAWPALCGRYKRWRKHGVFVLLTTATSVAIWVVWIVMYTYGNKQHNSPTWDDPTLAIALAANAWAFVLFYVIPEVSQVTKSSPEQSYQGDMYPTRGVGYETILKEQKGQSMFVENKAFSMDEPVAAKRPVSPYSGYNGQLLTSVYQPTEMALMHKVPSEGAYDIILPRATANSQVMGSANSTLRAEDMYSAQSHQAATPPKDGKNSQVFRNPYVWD
Method: as §1, §2

[8] = biological target: T2, human GPRC5D (G protein-coupled …); assay: cell-based or functional assay
[9] = biological target: T6, human GPRC5B, on 293T cells (human, UniProt Q9NZH0 29-403); assay: FACS on 293T-GPRC5B cells, antibody at 2 µg/mL; control tubes 8.55 and 8.26
T6 construct: whole, on cells; also called 293T-GPRC5B
T6 sequence (Q9NZH0 29-403): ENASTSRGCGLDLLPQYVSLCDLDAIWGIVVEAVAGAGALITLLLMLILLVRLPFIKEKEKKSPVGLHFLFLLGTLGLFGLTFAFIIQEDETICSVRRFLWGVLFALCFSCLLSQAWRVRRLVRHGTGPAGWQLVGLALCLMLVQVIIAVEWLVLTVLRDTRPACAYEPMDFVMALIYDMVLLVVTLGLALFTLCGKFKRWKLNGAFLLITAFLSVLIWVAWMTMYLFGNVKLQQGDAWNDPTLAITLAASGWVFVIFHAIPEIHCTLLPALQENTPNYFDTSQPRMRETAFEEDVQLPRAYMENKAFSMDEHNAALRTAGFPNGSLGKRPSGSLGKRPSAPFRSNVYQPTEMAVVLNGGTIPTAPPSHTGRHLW
Method: as §1, §2

[10] = biological target: human CD3 protein (KACTUS) (human); assay: Fortebio BLI, antibody captured on AHC chip, human CD3 protein as analyte
Sequence of human CD3 protein (KACTUS) (human) (chain, as listed by the source): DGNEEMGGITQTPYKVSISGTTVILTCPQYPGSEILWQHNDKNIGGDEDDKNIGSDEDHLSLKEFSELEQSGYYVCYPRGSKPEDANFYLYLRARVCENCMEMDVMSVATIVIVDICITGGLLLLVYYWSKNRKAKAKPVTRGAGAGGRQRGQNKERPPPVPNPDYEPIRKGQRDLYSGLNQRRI

[11] = biological target: T2, human GPRC5D (G protein-coupled …); assay: FACS, hybridoma supernatant on NCI-H929 cells
Method: as §1

[12] = biological target: T2, human GPRC5D (G protein-coupled …); assay: cell ELISA, hybridoma supernatant on fixed BXPC-3 cells expressing human GPRC5D
Method: BXPC-3 cells expressing human GPRC5D (Kyinno, catalog number KC-1717) were prepared into a suspension at concentration of 1×10⁵ cells/ml in PBS containing 2% FBS. The suspension was added to a 96-well plate at 100 μl/well and cultured overnight at 37° C. The wells were cleared of their contents and washed three times with washing solution. 80 μl of 4% tissue fixative (Beyotime, catalog number P0099) was added to each well followed by fixing at room temperature for 15 min, washing twice with PBS and drying. 250 μl of blocking solution containing 2% BSA was added to each well followed by incubation at 37° C. for 1 hr and washing three times with PBS. 50-100 μl of the supernatant of the hybridoma cell culture was added to each well. A positive control (adding serum from fusion mice), a negative control (adding serum from normal mice) and a blank control (adding culture medium) were included. The wells were incubated at 37° C. for 1-2 hrs, washed, and dried. Then, the enzyme-labeled secondary antibody, HRP-labeled goat anti-mouse IgG (SIGMA, catalog number A9044-2 ml) was added at dilution of 1:10000 and 50-100 μl/well. The wells were incubated at 37° C. for 1-2 hrs, washed, and dried. 50-100 μl of freshly prepared developing solution TMB was added to each well and incubated at 37° C. for 10-30 mins.
2 mol/L H₂SO₄ was added to terminate the reaction, and the OD value was read on an enzyme-linked immunosorbent reader.

[13] = biological target: T2, human GPRC5D (G protein-coupled …); assay: FACS, hybridoma supernatant on 293T cells expressing human GPRC5D
Method: 293T cells expressing human GPRC5D as described above was prepared into a suspension at concentration of 1×10⁵ cells/ml in PBS containing 2% FBS.
1 ml of FACS buffer was added to each FACS tube, centrifuged at 1200 rpm for 5 mins. The supernatant was discarded followed by washing three times. At the same time, control tube 1 (no supernatant of the culture and the secondary antibody mentioned below, adding only cell suspension) and control tube 2 (no supernatant of the culture, adding only cell suspension and the secondary antibody mentioned below) were included.
as §1

[14] = biological target: T2, human GPRC5D (G protein-coupled …); assay: FACS, hybridoma supernatant on OPM2 cells
[15] = biological target: T7, Nalm6 cells (NALM6, Kyinno, catalog number KC-0626); assay: FACS, hybridoma supernatant on Nalm6 cells
T7 construct: Kept apart from human GPRC5D so that the low MFI values on this line are not laid to the GPRC5D pair

[16] = biological target: T2, human GPRC5D (G protein-coupled …); assay: FACS, hybridoma supernatant on MM1R cells
[17] = biological target: T3, monkey (cyno) GPRC5D, on 293T cells; assay: FACS, hybridoma supernatant on 293T cells expressing monkey GPRC5D
Source text: According to the method described in Example 4, the binding between the culture supernatant of the hybridoma cells and monkey GPRC5D was detected, except that the human GPRC5D-expressing cells were replaced with 293T cells expressing monkey GPRC5D (Kyinno, catalog number KC-1586).

T1 sequence (Q8NFJ5 whole entry): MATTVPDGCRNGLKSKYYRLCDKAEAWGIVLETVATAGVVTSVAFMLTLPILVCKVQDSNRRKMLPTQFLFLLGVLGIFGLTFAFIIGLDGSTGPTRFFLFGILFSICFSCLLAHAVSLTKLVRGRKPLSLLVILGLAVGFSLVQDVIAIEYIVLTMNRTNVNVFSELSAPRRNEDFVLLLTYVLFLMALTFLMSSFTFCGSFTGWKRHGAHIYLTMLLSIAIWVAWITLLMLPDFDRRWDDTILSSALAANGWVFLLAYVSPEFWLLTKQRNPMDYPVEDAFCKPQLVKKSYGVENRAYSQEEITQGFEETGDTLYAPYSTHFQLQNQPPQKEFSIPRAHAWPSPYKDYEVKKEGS

FACS result [1]: 8.46 | EC50 [2]: 0.571 µg/mL | MFI.Max [2]: 185 MFI | EC50 [3]: 0.964 µg/mL | MFI.Max [3]: 78 MFI | MFI.Max [4]: 12.3 MFI | Kd [5]: 1.7 nM | koff [5]: 3.15e-05 s⁻¹ | kon [5]: 18500 M⁻¹ s⁻¹ | EC50 [6]: 0.228 µg/mL | MFI.Max [6]: 9560 MFI | FACS result [7]: 8.89 | ADCC reporter (Jurkat-NFAT-luc-CD16-V158 luciferase), EC50 [8]: 0.0452 µg/mL | ADCC reporter (Jurkat-NFAT-luc-CD16-V158 luciferase), Top [8]: 18.4 | FACS result [9]: 8.59
B4: humanized antibody 26D1 (hz) (antibody, V domains shown)
VH: QVQLVQSGAEVKKPGASVKVSCKASGYTFTSYTIQWIKQAPGQGLEWIGYIIPSSGYTNYNQKFKDKATLTADKSSNTAYMELSSLTSEDTAVYYCANNYGNWGFTYWGQGTTVTVSS
VL: DIQMTQSPSTLSASVGDRVTITCKASQNVGSAVTWYQQKPGKAPRLLIYSASNRYTGVPDRFSGSGSGTEFTLTISSLQPDDFATYFCQQYSNYPLTFGQGTRLEIKR

Kd [10]: 18 nM | koff [10]: 0.00795 s⁻¹ | kon [10]: 442000 M⁻¹ s⁻¹
B5: humanized anti-CD3 antibody SP34V1 (hz) (antibody, V domains shown)
VH: QVQLVESGGGLVKPGGSLRLSCAASGFTFSTYAMNWVRQAPGKGLEWVGRIRSKYNNYATYYADSVKDRFTISRDDAKNSLYLQMNSLRAEDTAVYYCARHGNFGNSYVSYFAYWGQGTTVTVSS
VL: DIQMTQSPSSLSASVGDRVTITCRSSTGAVTTSNYANWVQQKPGKAPKALIGGTNKRAPGVPSRFSGSLSGDDATLTISSLQPEDFATYYCALWYSNLWVFGQGTRLEIKR

MFI.Max [11]: 1100 MFI | OD value [12]: 1.54 OD | EC50 [13]: 0.117 µg/mL | MFI.Max [13]: 9520 MFI | EC50 [14]: 5.67 µg/mL | MFI.Max [14]: 1190 MFI | MFI.Max [15]: 106 MFI | MFI.Max [16]: 991 MFI | EC50 [17]: 0.268 µg/mL | MFI.Max [17]: 6260 MFI
B6: murine antibody 24F5 (A3 antibody) (antibody, V domains shown)
VH: QVQLKESGPELVKPGASVKISCKASGYTFPYYVMHWVKQKPGQGLEWIGYINPYNDGTKYNEKFKGKAALTSDKSSSTAYMDLSSLTSEDSAVYYCARGGVRRYFDYWGQGTTLTVSS
VL: DIQMTQTPSSLSASLGERVSLTCRASQDIGSNLNWLQQEPDGTIKRLIYATSSLDSGVPKRFSGSRSGSDYSLTISSLESEDFVDYYCLQYATFPYTFGGGTKLEIK
notes: Tested as hybridoma cell culture supernatant; also called murine anti-24F5

Continued, binder first:

B1: humanized antibody 9D7 (hz) (antibody, V domains shown)
VH: QVQLQESGPGLVKPSETLSLTCTVSGYSITSDYAWNWIRQPPGKGLEWMGYISYSGSATYSPSLKSRITISRDTSKNQFSLKLSSVTAADTAVYYCARGGIAGRGRWGAMDYWGQGTTVTVSS
VL: DIQMTQSPSSLSASVGDRVTITCKASQNVGTNVAWYQQKPGQSPKALIYSASYRDSGVPDRFSGSGSGTDFTLTISSLQPEDFATYYCQQYKSYPLTFGQGTRLEIKR
FACS result [1]: 8.34 | EC50 [2]: 0.09 µg/mL | MFI.Max [2]: 150 MFI | EC50 [3]: 0.313 µg/mL | MFI.Max [3]: 128 MFI | EC50 [4]: 0.378 µg/mL | MFI.Max [4]: 4260 MFI | Kd [5]: < 0.001 nM | koff [5]: < 1e-07 s⁻¹ | kon [5]: 22600 M⁻¹ s⁻¹ | EC50 [6]: 0.283 µg/mL | MFI.Max [6]: 8940 MFI | FACS result [7]: 8.48 | ADCC reporter (Jurkat-NFAT-luc-CD16-V158 luciferase), Top [8]: 24.5 | FACS result [9]: 8.54

B2: humanized antibody 24F5 (hz) (antibody, V domains shown)
VH: QVQLVQSGAEVKKPGASVKVSCKASGYTFPYYVMHWVRQAPGQGLEWIGYINPYNDGTKYNEKFKGRATLTSDKSTSTAYMELSSLRSEDTAVYYCARGGVRRYFDYWGQGTTVTVSS
VL: DIQMTQSPSTLSASVGDRVTITCRASQDIGSNLNWLQQKPGGTIKRLIYATSSLDSGVPSRFSGSRSGSEYTLTISSLQPDDFATYYCLQYATFPYTFGQGTRLEIKR
FACS result [1]: 8.45 | EC50 [2]: 0.0682 µg/mL | MFI.Max [2]: 177 MFI | EC50 [3]: 0.581 µg/mL | MFI.Max [3]: 133 MFI | EC50 [4]: 0.167 µg/mL | MFI.Max [4]: 3560 MFI | Kd [5]: 1.36 nM | koff [5]: 5.42e-05 s⁻¹ | kon [5]: 39900 M⁻¹ s⁻¹ | EC50 [6]: 0.7 µg/mL | MFI.Max [6]: 8910 MFI | FACS result [7]: 8.97 | ADCC reporter (Jurkat-NFAT-luc-CD16-V158 luciferase), Top [8]: 25.4 | FACS result [9]: 8.58

B3: humanized antibody 6E97 (hz) (antibody, V domains shown)
VH: B2 VH with M34I, D56A
VL: B2 VL with M4L, Y49S
FACS result [1]: 8.54 | EC50 [2]: 0.146 µg/mL | MFI.Max [2]: 246 MFI | EC50 [3]: 0.256 µg/mL | MFI.Max [3]: 144 MFI | EC50 [4]: 0.192 µg/mL | MFI.Max [4]: 6250 MFI | Kd [5]: 0.458 nM | koff [5]: 2.08e-05 s⁻¹ | kon [5]: 45500 M⁻¹ s⁻¹ | EC50 [6]: 0.351 µg/mL | MFI.Max [6]: 14800 MFI | FACS result [7]: 8.78 | ADCC reporter (Jurkat-NFAT-luc-CD16-V158 luciferase), Top [8]: 32.8 | FACS result [9]: 8.62
